Bridge positions count the residues as written; N and C are the ends. Ends that are not written are not given here.
Biological target: natriuretic peptide receptor-B (NPR-B) on the cells of the cGMP stimulation assay of Example 2
Assay: cell-based or functional assay

Binder: Ac-PGQEHPNARRYRGANRRGLSRGCFGLKLDRIGSMSGLGC-NH2 (disulfide 23-39 (inferred)) [CNP-7]
- EC50, T0 (cGMP stimulation assay): 2.1 nM

Binder: Ac-PGQEHPNARRYRGANRRGLSRGCFGLKLDRIGSMSGLGC-OH (disulfide 23-39 (inferred)) [CNP-6]
- EC50, T0 (cGMP stimulation assay): 0.4 nM

Binder: Ac-PGQEHPQARRYRGAQRRGLSRGCFGLKLDRIGSMSGLGC-OH (disulfide 23-39 (inferred)) [CNP-8]
- EC50, T0 (cGMP stimulation assay): 0.2 nM

Binder: PGQEHPNARKYKGANKKGLSKGCFGLKLDRIGSMSGLGC (disulfide 23-39 (inferred)) [Pro-Gly CNP-37]
- EC50, T0 (cGMP stimulation assay): 1.7 nM

Binder: Ac-PGQEHPNARKYKGANKKGLSKGCFGLKLDRIGSMSGLGC-NH2 (disulfide 23-39 (inferred)) [CNP-5]
- EC50, T0 (cGMP stimulation assay): 3 nM

Binder: Ac-PGQEHPQARRYRGAQRRGLSRGCFGLKLDRIGSMSGLGC-NH2 (disulfide 23-39 (inferred)) [CNP-9]
- EC50, T0 (cGMP stimulation assay): 0.9 nM

— patent US20230192799A1 (BIOMARIN PHARMACEUTICAL, published 2023)
